Tests used:
[1] = biological target: T1, human MSLN antigen (human, UniProt Q13421 296-580, limits assumed); experiment: Octet BLI on human MSLN antigen (Example 2B(a)); KD quoted in the FIG. 35 legend
T1 construct: Soluble antigen for BLI; also called Mesothelin; MESO
From the text: Variants of MESO-C were engineered by introducing point substitutions into the variable heavy region (VH) and the variable light region (VL) to generate 11 VH variants and 16 VL variants (sequences for which are depicted in FIG. 18 as H1.1-H1.13 and in FIG. 19 as L1.1-L1.18). An additional 4 VL variants were generated by combining useful point substitutions (sequences for which are depicted in FIG. 19 as L1.19-L1.22). WT and variant variable heavy regions were paired with WT and variant variable light regions to generate variant variable regions (Fvs) which were produced in the context of anti-MSLN×anti-CD3 bispecific antibodies. The bispecific antibodies were screened for MSLN binding affinity using Octet®, a BioLayer Interferometry (BLI)-based method. Experimental steps for Octet® generally include the following: Immobilization (capture of ligand to a biosensor); Association (dipping of ligand-coated biosensors into wells containing the analyte); and Dissociation (returning of biosensors to well containing buffer). In an initial screening, anti-human Fc sensors were used to capture the bispecific mAbs and dipped into human MSLN antigen (one concentration to screen large library). The resulting dissociation constant of illustrative variants (KD), association rate (kₐ), dissociation rate (kd), as well as sensorgram response are depicted in FIG. 20. In further screening of favorite variants identified in the initial screen (and combination variants), bispecific mAbs were dipped into multiple concentrations of human MSLN antigen, data for which are depicted in FIG. 21 (from various screens).

[2] = biological target: T2, MSLN on OVCAR8 (MSLN^high) and other cancer cell lines (UniProt Q13421 296-598); experiment: flow cytometry on OVCAR8 cells, detected with A647-labelled anti-human Fc mAb
T2 construct: whole, on cells; Endogenous surface MSLN; also called MSLN^high OVCAR8 cells; MSLN^low SKOV3 and HT29 cells
Experimental: Next, the effect of MSLN binding affinity was investigated. 100,000 OVCAR8 (MSLN^high) cells were treated with the indicated concentrations of the indicated test articles. […] Further, XENP32852 and XENP32853 which differ only in CD3 binding affinity have identical binding to OVCAR8 cells confirming that avid binding is due to the MSLN binding domain.

T2 sequence (Q13421 other isoform, or with tags, fused parts or gaps limits assumed): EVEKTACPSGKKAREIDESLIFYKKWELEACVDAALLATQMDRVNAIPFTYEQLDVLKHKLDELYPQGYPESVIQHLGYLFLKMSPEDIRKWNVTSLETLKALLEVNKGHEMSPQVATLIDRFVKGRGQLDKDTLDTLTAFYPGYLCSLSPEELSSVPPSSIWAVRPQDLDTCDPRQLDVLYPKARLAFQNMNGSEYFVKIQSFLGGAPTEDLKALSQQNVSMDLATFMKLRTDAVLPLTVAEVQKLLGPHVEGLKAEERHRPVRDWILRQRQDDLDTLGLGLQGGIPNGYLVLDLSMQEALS
T1 sequence (Q13421 other isoform, or with tags, fused parts or gaps limits assumed): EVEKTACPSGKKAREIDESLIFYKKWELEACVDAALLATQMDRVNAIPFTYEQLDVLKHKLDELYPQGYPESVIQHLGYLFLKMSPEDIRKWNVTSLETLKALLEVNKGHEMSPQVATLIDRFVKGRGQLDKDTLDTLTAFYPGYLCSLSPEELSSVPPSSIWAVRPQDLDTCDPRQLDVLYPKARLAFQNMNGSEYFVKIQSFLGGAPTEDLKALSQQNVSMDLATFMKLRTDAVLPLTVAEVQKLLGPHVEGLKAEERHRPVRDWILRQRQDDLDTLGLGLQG

Kd [1] [nM]	EC50 (read off the curve) [2] [µg/mL]	Binder
0.28	~0.04	XENP31717 (bispecific antibody, 2+1 Fab2-scFv-Fc anti-MSLN x anti-CD3) heavy 1: QVQLVQSGAEVKKPGASVKVSCKASGYTFTSYWMHWVRQAPGQGLEWMGMIHPNSDNTIYYEKFQGRVTMTVDKSISTAYMELSRLRSDDTAVYYCAIIITPVVPKFDYWGQGTLVTVSSASTKGPSVFPLAPSSKSTSGGTAALGCLVKDYFPEPVTVSWNSGALTSGVHTFPAVLQSSGLYSLSSVVTVPSSSLGTQTYICNVNHKPSDTKVDKKVEPKSCDKTHTCPPCPAPPVAGPSVFLFPPKPKDTLMISRTPEVTCVVVDVKHEDPEVKFNWYVDGVEVHNAKTKPREEEYNSTYRVVSVLTVLHQDWLNGKEYKCKVSNKALPAPIEKTISKAKGQPREPQVYTLPPSREEMTKNQVSLTCDVSGFYPSDIAVEWESDGQPENNYKTTPPVLDSDGSFFLYSKLTVDKSRWEQGDVFSCSVMHEALHNHYTQKSLSLSPGK heavy 2: QVQLVQSGAEVKKPGASVKVSCKASGYTFTSYWMHWVRQAPGQGLEWMGMIHPNSDNTIYYEKFQGRVTMTVDKSISTAYMELSRLRSDDTAVYYCAIIITPVVPKFDYWGQGTLVTVSSASTKGPSVFPLAPSSKSTSGGTAALGCLVKDYFPEPVTVSWNSGALTSGVHTFPAVLQSSGLYSLSSVVTVPSSSLGTQTYICNVNHKPSNTKVDKKVEPKSCGGGGSGGGGSQAVVTQEPSLTVSPGGTVTLTCGSSTGAVTTSNYANWVQQKPGKSPRGLIGGTNKRAPGVPARFSGSLLGGKAALTISGAQPEDEADYYCALWYSNHWVFGGGTKLTVLGKPGSGKPGSGKPGSGKPGSEVQLVESGGGLVQPGGSLRLSCAASGFTFSTYAMNWVRQAPGKGLEWVGRIRSKANNYATYYADSVKGRFTISRDDSKNTLYLQMNSLRAEDTAVYYCVRHGNFGDSYVSWFAYWGQGTLVTVSSGGGGSGGGGSKTHTCPPCPAPPVAGPSVFLFPPKPKDTLMISRTPEVTCVVVDVKHEDPEVKFNWYVDGVEVHNAKTKPREEQYNSTYRVVSVLTVLHQDWLNGKEYKCKVSNKALPAPIEKTISKAKGQPREPQVYTLPPSREQMTKNQVKLTCLVKGFYPSDIAVEWESNGQPENNYKTTPPVLDSDGSFFLYSKLTVDKSRWQQGNVFSCSVMHEALHNHYTQKSLSLSPGK light: DIVMTQSPDSLAVSLGERATINCKASHDVGTSVAWYQQKPGQSPKLLIYWASTRHTGVPDRFTGSGSGTDFTLTISSLQAEDVAVYFCQQYSSYPLTFGAGTKLEIKRTVAAPSVFIFPPSDEQLKSGTASVVCLLNNFYPREAKVQWKVDNALQSGNSQESVTEQDSKDSTYSLSSTLTLSKADYEKHKVYACEVTHQGLSSPVTKSFNRGEC
0.45	~0.05	XENP32745 (bispecific antibody, 2+1 Fab2-scFv-Fc) heavy 1: QVQLVQSGAEVKKPGASVKVSCKASGYTFTSYWMHWVRQAPGQGLEWMGMIHPNSDNTIYYEKFQGRVTMTVDKSISTAYMELSRLRSDDTAVYYCAIIITPVVPKFDYWGQGTLVTVSSASTKGPSVFPLAPSSKSTSGGTAALGCLVKDYFPEPVTVSWNSGALTSGVHTFPAVLQSSGLYSLSSVVTVPSSSLGTQTYICNVNHKPSDTKVDKKVEPKSCDKTHTCPPCPAPPVAGPSVFLFPPKPKDTLMISRTPEVTCVVVDVKHEDPEVKFNWYVDGVEVHNAKTKPREEEYNSTYRVVSVLTVLHQDWLNGKEYKCKVSNKALPAPIEKTISKAKGQPREPQVYTLPPSREEMTKNQVSLTCDVSGFYPSDIAVEWESDGQPENNYKTTPPVLDSDGSFFLYSKLTVDKSRWEQGDVFSCSVMHEALHNHYTQKSLSLSPGK heavy 2: QVQLVQSGAEVKKPGASVKVSCKASGYTFTSYWMHWVRQAPGQGLEWMGMIHPNSDNTIYYEKFQGRVTMTVDKSISTAYMELSRLRSDDTAVYYCAIIITPVVPKFDYWGQGTLVTVSSASTKGPSVFPLAPSSKSTSGGTAALGCLVKDYFPEPVTVSWNSGALTSGVHTFPAVLQSSGLYSLSSVVTVPSSSLGTQTYICNVNHKPSNTKVDKKVEPKSCGGGGSGGGGSQAVVTQEPSLTVSPGGTVTLTCGSSTGAVTTSNYANWVQQKPGKSPRGLIGGTNKRAPGVPARFSGSLLGGKAALTISGAQPEDEADYYCALWYSNHWVFGGGTKLTVLGKPGSGKPGSGKPGSGKPGSEVQLVESGGGLVQPGGSLRLSCAASGFTFSTYAMNWVRQAPGKGLEWVGRIRSKANNYATYYADSVKGRFTISRDDSKNTLYLQMNSLRAEDTAVYYCVRHGNFGDSYVSWFAYWGQGTLVTVSSGGGGSGGGGSKTHTCPPCPAPPVAGPSVFLFPPKPKDTLMISRTPEVTCVVVDVKHEDPEVKFNWYVDGVEVHNAKTKPREEQYNSTYRVVSVLTVLHQDWLNGKEYKCKVSNKALPAPIEKTISKAKGQPREPQVYTLPPSREQMTKNQVKLTCLVKGFYPSDIAVEWESNGQPENNYKTTPPVLDSDGSFFLYSKLTVDKSRWQQGNVFSCSVMHEALHNHYTQKSLSLSPGK light: DIVMTQSPDSLAVSLGERATINCKASHSVGTSVAWYQQKPGQSPKLLIYWASTRHTGVPDRFTGSGSGTDFTLTISSLQAEDVAVYFCQQYSSYPLTFGAGTKLEIKRTVAAPSVFIFPPSDEQLKSGTASVVCLLNNFYPREAKVQWKVDNALQSGNSQESVTEQDSKDSTYSLSSTLTLSKADYEKHKVYACEVTHQGLSSPVTKSFNRGEC
0.74	~0.04	XENP32748 (bispecific antibody, 2+1 Fab2-scFv-Fc) heavy 1: QVQLVQSGAEVKKPGASVKVSCKASGYTFTSYWMHWVRQAPGQGLEWMGMIHPNSDNTIYYEKFQGRVTMTVDKSISTAYMELSRLRSDDTAVYYCAIIITPVVPKFDYWGQGTLVTVSSASTKGPSVFPLAPSSKSTSGGTAALGCLVKDYFPEPVTVSWNSGALTSGVHTFPAVLQSSGLYSLSSVVTVPSSSLGTQTYICNVNHKPSDTKVDKKVEPKSCDKTHTCPPCPAPPVAGPSVFLFPPKPKDTLMISRTPEVTCVVVDVKHEDPEVKFNWYVDGVEVHNAKTKPREEEYNSTYRVVSVLTVLHQDWLNGKEYKCKVSNKALPAPIEKTISKAKGQPREPQVYTLPPSREEMTKNQVSLTCDVSGFYPSDIAVEWESDGQPENNYKTTPPVLDSDGSFFLYSKLTVDKSRWEQGDVFSCSVMHEALHNHYTQKSLSLSPGK heavy 2: QVQLVQSGAEVKKPGASVKVSCKASGYTFTSYWMHWVRQAPGQGLEWMGMIHPNSDNTIYYEKFQGRVTMTVDKSISTAYMELSRLRSDDTAVYYCAIIITPVVPKFDYWGQGTLVTVSSASTKGPSVFPLAPSSKSTSGGTAALGCLVKDYFPEPVTVSWNSGALTSGVHTFPAVLQSSGLYSLSSVVTVPSSSLGTQTYICNVNHKPSNTKVDKKVEPKSCGGGGSGGGGSQAVVTQEPSLTVSPGGTVTLTCGSSTGAVTTSNYANWVQQKPGKSPRGLIGGTNKRAPGVPARFSGSLLGGKAALTISGAQPEDEADYYCALWYSNHWVFGGGTKLTVLGKPGSGKPGSGKPGSGKPGSEVQLVESGGGLVQPGGSLRLSCAASGFTFSTYAMNWVRQAPGKGLEWVGRIRSKANNYATYYADSVKGRFTISRDDSKNTLYLQMNSLRAEDTAVYYCVRHGNFGDSYVSWFAYWGQGTLVTVSSGGGGSGGGGSKTHTCPPCPAPPVAGPSVFLFPPKPKDTLMISRTPEVTCVVVDVKHEDPEVKFNWYVDGVEVHNAKTKPREEQYNSTYRVVSVLTVLHQDWLNGKEYKCKVSNKALPAPIEKTISKAKGQPREPQVYTLPPSREQMTKNQVKLTCLVKGFYPSDIAVEWESNGQPENNYKTTPPVLDSDGSFFLYSKLTVDKSRWQQGNVFSCSVMHEALHNHYTQKSLSLSPGK light: DIVMTQSPDSLAVSLGERATINCKASHDVLTSVAWYQQKPGQSPKLLIYWASTRHTGVPDRFTGSGSGTDFTLTISSLQAEDVAVYFCQQYSSYPLTFGAGTKLEIKRTVAAPSVFIFPPSDEQLKSGTASVVCLLNNFYPREAKVQWKVDNALQSGNSQESVTEQDSKDSTYSLSSTLTLSKADYEKHKVYACEVTHQGLSSPVTKSFNRGEC

Reference: US20240279356A1 (Xencor, published 2024)
